According to patent US20230331827A1 (MAXION THERAPEUTICS, published 2023):

molecular target: human cMET (human, UniProt P08581 25-932); assay: phage TRF on cMET
Sequence (P08581 25-932 limits assumed): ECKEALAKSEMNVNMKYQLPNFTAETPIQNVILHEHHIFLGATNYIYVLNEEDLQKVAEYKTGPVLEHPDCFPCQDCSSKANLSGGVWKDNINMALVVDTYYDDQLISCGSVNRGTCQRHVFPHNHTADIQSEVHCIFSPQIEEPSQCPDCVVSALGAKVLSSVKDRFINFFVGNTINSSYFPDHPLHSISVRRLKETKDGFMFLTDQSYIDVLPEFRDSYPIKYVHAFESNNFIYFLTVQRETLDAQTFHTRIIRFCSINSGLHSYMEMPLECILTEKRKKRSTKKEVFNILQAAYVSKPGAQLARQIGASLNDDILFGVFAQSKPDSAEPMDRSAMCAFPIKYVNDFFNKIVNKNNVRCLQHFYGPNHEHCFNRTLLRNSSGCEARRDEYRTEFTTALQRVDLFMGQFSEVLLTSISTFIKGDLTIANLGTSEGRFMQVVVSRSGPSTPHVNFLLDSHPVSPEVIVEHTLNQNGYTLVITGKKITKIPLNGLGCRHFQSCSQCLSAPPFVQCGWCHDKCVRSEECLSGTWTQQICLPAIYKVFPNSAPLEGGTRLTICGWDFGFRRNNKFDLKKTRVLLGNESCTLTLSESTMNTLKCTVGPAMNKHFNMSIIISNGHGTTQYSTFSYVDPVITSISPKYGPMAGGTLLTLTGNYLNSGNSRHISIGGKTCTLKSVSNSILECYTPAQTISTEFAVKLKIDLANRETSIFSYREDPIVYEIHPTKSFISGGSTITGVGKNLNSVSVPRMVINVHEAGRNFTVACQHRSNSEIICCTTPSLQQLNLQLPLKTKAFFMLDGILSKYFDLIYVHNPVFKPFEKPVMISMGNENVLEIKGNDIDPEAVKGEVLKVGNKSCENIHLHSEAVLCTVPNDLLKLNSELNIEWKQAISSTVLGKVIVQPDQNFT

Binder	TRF signal
KB_A12_cMET_E11 (scFv, V domains shown) VH: EVQLVESGGGLVRPGGSLRLSCAASGFTFSSYAMSWVRQAPGKGLEWVSAISGSGGSTYYADSVKGRFTISRDNTKNSLYLQMTSLRADDTAFYYCVKDFGPGYGTGWFDYWGPGTLVTVSS VL: AVNWYQQLPGKAPKLLIYAAGRCAKKSGTGRCKQDSDCLAGCVCGPNGFCGANSGVSDRFSAAKSGTSASLAINGLRSEDEADYYCAAWDDSLNGYVFGTGTKLTVLG	158000
KB_A12_cMET_F10 (scFv, V domains shown) VH: EVQLVESGGGLVRPGGSLRLSCAASGFTFSSYAMSWVRQAPGKGLEWVSAISGSGGSTYYADSVKGRFTISRDNTKNSLYLQMTSLRADDTAFYYCVKDFGPGYGTGWFDYWGPGTLVTVSS VL: AVNWYQQLPGKAPKLLIYAAGRCRSLMSGTGRCKQDSDCLAGCVCGPNGFCGANSGVSDRFSAAKSGTSASLAINGLRSEDEADYYCAAWDDSLNGYVFGTGTKLTVLG	51300
KB_A12_cMET_G08 (scFv, V domains shown) VH: EVQLVESGGGLVRPGGSLRLSCAASGFTFSSYAMSWVRQAPGKGLEWVSAISGSGGSTYYADSVKGRFTISRDNTKNSLYLQMTSLRADDTAFYYCVKDFGPGYGTGWFDYWGPGTLVTVSS VL: AVNWYQQLPGKAPKLLIYAAGRCARLSGSGRCKQDSDCLAGCVCGPNGFCGANSGVSDRFSAAKSGTSASLAINGLRSEDEADYYCAAWDDSLNGYVFGTGTKLTVLG	27900
KB_A12_cMET_F02 (scFv, V domains shown) VH: EVQLVESGGGLVRPGGSLRLSCAASGFTFSSYAMSWVRQAPGKGLEWVSAISGSGGSTYYADSVKGRFTISRDNTKNSLYLQMTSLRADDTAFYYCVKDFGPGYGTGWFDYWGPGTLVTVSS VL: AVNWYQQLPGKAPKLLIYAAGRCGRASGTGRCKQDSDCLAGCVCGPNGFCGANSGVSDRFSAAKSGTSASLAINGLRSEDEADYYCAAWDDSLNGYVFGTGTKLTVLG	98500
KB_A12_cMET_E01 (scFv, V domains shown) VH: EVQLVESGGGLVRPGGSLRLSCAASGFTFSSYAMSWVRQAPGKGLEWVSAISGSGGSTYYADSVKGRFTISRDNTKNSLYLQMTSLRADDTAFYYCVKDFGPGYGTGWFDYWGPGTLVTVSS VL: AVNWYQQLPGKAPKLLIYAAGRCNLTSGTGRCKQDSDCLAGCVCGPNGFCGANSGVSDRFSAAKSGTSASLAINGLRSEDEADYYCAAWDDSLNGYVFGTGTKLTVLG	22400
KB_A12_cMET_H03 (scFv, V domains shown) VH: EVQLVESGGGLVRPGGSLRLSCAASGFTFSSYAMSWVRQAPGKGLEWVSAISGSGGSTYYADSVKGRFTISRDNTKNSLYLQMTSLRADDTAFYYCVKDFGPGYGTGWFDYWGPGTLVTVSS VL: AVNWYQQLPGKAPKLLIYAAGRCRGMTGVGRCKQDSDCLAGCVCGPNGFCGANSGVSDRFSAAKSGTSASLAINGLRSEDEADYYCAAWDDSLNGYVFGTGTKLTVLG	54200
KB_A12_cMET_H04 (scFv, V domains shown) VH: EVQLVESGGGLVRPGGSLRLSCAASGFTFSSYAMSWVRQAPGKGLEWVSAISGSGGSTYYADSVKGRFTISRDNTKNSLYLQMTSLRADDTAFYYCVKDFGPGYGTGWFDYWGPGTLVTVSS VL: AVNWYQQLPGKAPKLLIYAAGRCPQMTGTGRCKQDSDCLAGCVCGPNGFCGANSGVSDRFSAAKSGTSASLAINGLRSEDEADYYCAAWDDSLNGYVFGTGTKLTVLG	113000
KB_A12_cMET_H02 (scFv, V domains shown) VH: EVQLVESGGGLVRPGGSLRLSCAASGFTFSSYAMSWVRQAPGKGLEWVSAISGSGGSTYYADSVKGRFTISRDNTKNSLYLQMTSLRADDTAFYYCVKDFGPGYGTGWFDYWGPGTLVTVSS VL: AVNWYQQLPGKAPKLLIYAAGRCAKRTGTGRCKQDSDCLAGCVCGPNGFCGANSGVSDRFSAAKSGTSASLAINGLRSEDEADYYCAAWDDSLNGYVFGTGTKLTVLG	35400
KB_A12_cMET_H01 (scFv, V domains shown) VH: EVQLVESGGGLVRPGGSLRLSCAASGFTFSSYAMSWVRQAPGKGLEWVSAISGSGGSTYYADSVKGRFTISRDNTKNSLYLQMTSLRADDTAFYYCVKDFGPGYGTGWFDYWGPGTLVTVSS VL: AVNWYQQLPGKAPKLLIYAAGRCHRMSGTGRCKQDSDCLAGCVCGPNGFCGANSGVSDRFSAAKSGTSASLAINGLRSEDEADYYCAAWDDSLNGYVFGTGTKLTVLG	132000
KB_A12_cMET_F05 (scFv, V domains shown) VH: EVQLVESGGGLVRPGGSLRLSCAASGFTFSSYAMSWVRQAPGKGLEWVSAISGSGGSTYYADSVKGRFTISRDNTKNSLYLQMTSLRADDTAFYYCVKDFGPGYGTGWFDYWGPGTLVTVSS VL: AVNWYQQLPGKAPKLLIYAAGRCKRLMSGAGRCKQDSDCLAGCVCGPNGFCGANSGVSDRFSAAKSGTSASLAINGLRSEDEADYYCAAWDDSLNGYVFGTGTKLTVLG	59600
KB_A12_cMET_E04 (scFv, V domains shown) VH: EVQLVESGGGLVRPGGSLRLSCAASGFTFSSYAMSWVRQAPGKGLEWVSAISGSGGSTYYADSVKGRFTISRDNTKNSLYLQMTSLRADDTAFYYCVKDFGPGYGTGWFDYWGPGTLVTVSS VL: AVNWYQQLPGKAPKLLIYAAGRCGHLSGTGRCKQDSDCLAGCVCGPNGFCGANSGVSDRFSAAKSGTSASLAINGLRSEDEADYYCAAWDDSLNGYVFGTGTKLTVLG	41300
KB_A12_cMET_H05 (scFv, V domains shown) VH: EVQLVESGGGLVRPGGSLRLSCAASGFTFSSYAMSWVRQAPGKGLEWVSAISGSGGSTYYADSVKGRFTISRDNTKNSLYLQMTSLRADDTAFYYCVKDFGPGYGTGWFDYWGPGTLVTVSS VL: AVNWYQQLPGKAPKLLIYAAGRCNRASGAGRCKQDSDCLAGCVCGPNGFCGANSGVSDRFSAAKSGTSASLAINGLRSEDEADYYCAAWDDSLNGYVFGTGTKLTVLG	153000
KB_A12_cMET_F06 (scFv, V domains shown) VH: EVQLVESGGGLVRPGGSLRLSCAASGFTFSSYAMSWVRQAPGKGLEWVSAISGSGGSTYYADSVKGRFTISRDNTKNSLYLQMTSLRADDTAFYYCVKDFGPGYGTGWFDYWGPGTLVTVSS VL: AVNWYQQLPGKAPKLLIYAAGRCPHQTGTGRCKQDSDCLAGCVCGPNGFCGANSGVSDRFSAAKSGTSASLAINGLRSEDEADYYCAAWDDSLNGYVFGTGTKLTVLG	56200
KB_A12_cMET_E07 (scFv, V domains shown) VH: EVQLVESGGGLVRPGGSLRLSCAASGFTFSSYAMSWVRQAPGKGLEWVSAISGSGGSTYYADSVKGRFTISRDNTKNSLYLQMTSLRADDTAFYYCVKDFGPGYGTGWFDYWGPGTLVTVSS VL: AVNWYQQLPGKAPKLLIYAAGRCPKRHTGTGRCKQDSDCLAGCVCGPNGFCGANSGVSDRFSAAKSGTSASLAINGLRSEDEADYYCAAWDDSLNGYVFGTGTKLTVLG	95300
KB_A12_cMET_G06 (scFv, V domains shown) VH: EVQLVESGGGLVRPGGSLRLSCAASGFTFSSYAMSWVRQAPGKGLEWVSAISGSGGSTYYADSVKGRFTISRDNTKNSLYLQMTSLRADDTAFYYCVKDFGPGYGTGWFDYWGPGTLVTVSS VL: AVNWYQQLPGKAPKLLIYAAGRCNKSGGTGRCKQDSDCLAGCVCGPNGFCGANSGVSDRFSAAKSGTSASLAINGLRSEDEADYYCAAWDDSLNGYVFGTGTKLTVLG	62100
KB_A12_cMET_G07 (scFv, V domains shown) VH: EVQLVESGGGLVRPGGSLRLSCAASGFTFSSYAMSWVRQAPGKGLEWVSAISGSGGSTYYADSVKGRFTISRDNTKNSLYLQMTSLRADDTAFYYCVKDFGPGYGTGWFDYWGPGTLVTVSS VL: AVNWYQQLPGKAPKLLIYAAGRCRASSGTGRCKQDSDCLAGCVCGPNGFCGANSGVSDRFSAAKSGTSASLAINGLRSEDEADYYCAAWDDSLNGYVFGTGTKLTVLG	58000
KB_A12_cMET_G10 (scFv, V domains shown) VH: EVQLVESGGGLVRPGGSLRLSCAASGFTFSSYAMSWVRQAPGKGLEWVSAISGSGGSTYYADSVKGRFTISRDNTKNSLYLQMTSLRADDTAFYYCVKDFGPGYGTGWFDYWGPGTLVTVSS VL: AVNWYQQLPGKAPKLLIYAAGRCEKHSGTGRCKQDSDCLAGCVCGPNGFCGANSGVSDRFSAAKSGTSASLAINGLRSEDEADYYCAAWDDSLNGYVFGTGTKLTVLG	64800
KB_A12_cMET_E05 (scFv, V domains shown) VH: EVQLVESGGGLVRPGGSLRLSCAASGFTFSSYAMSWVRQAPGKGLEWVSAISGSGGSTYYADSVKGRFTISRDNTKNSLYLQMTSLRADDTAFYYCVKDFGPGYGTGWFDYWGPGTLVTVSS VL: AVNWYQQLPGKAPKLLIYAAGRCDRKAGTGRCKQDSDCLAGCVCGPNGFCGANSGVSDRFSAAKSGTSASLAINGLRSEDEADYYCAAWDDSLNGYVFGTGTKLTVLG	116000
KB_A12_cMET_E02 (scFv, V domains shown) VH: EVQLVESGGGLVRPGGSLRLSCAASGFTFSSYAMSWVRQAPGKGLEWVSAISGSGGSTYYADSVKGRFTISRDNTKNSLYLQMTSLRADDTAFYYCVKDFGPGYGTGWFDYWGPGTLVTVSS VL: AVNWYQQLPGKAPKLLIYAAGRCRKKSGANRCKQDSDCLAGCVCGPNGFCGANSGVSDRFSAAKSGTSASLAINGLRSEDEADYYCAAWDDSLNGYVFGTGTKLTVLG	9480
KB_A12_cMET_E12 (scFv, V domains shown) VH: EVQLVESGGGLVRPGGSLRLSCAASGFTFSSYAMSWVRQAPGKGLEWVSAISGSGGSTYYADSVKGRFTISRDNTKNSLYLQMTSLRADDTAFYYCVKDFGPGYGTGWFDYWGPGTLVTVSS VL: AVNWYQQLPGKAPKLLIYAAGRCAKRSGTGRCKQDSDCLAGCVCGPNGFCGANSGVSDRFSAAKSGTSASLAINGLRSEDEADYYCAAWDDSLNGYVFGTGTKLTVLG	95900
KB_A12_cMET_G01 (scFv, V domains shown) VH: EVQLVESGGGLVRPGGSLRLSCAASGFTFSSYAMSWVRQAPGKGLEWVSAISGSGGSTYYADSVKGRFTISRDNTKNSLYLQMTSLRADDTAFYYCVKDFGPGYGTGWFDYWGPGTLVTVSS VL: AVNWYQQLPGKAPKLLIYAAGRCQRQSGTGRCKQDSDCLAGCVCGPNGFCGANSGVSDRFSAAKSGTSASLAINGLRSEDEADYYCAAWDDSLNGYVFGTGTKLTVLG	98900
KB_A12_cMET_F12 (scFv, V domains shown) VH: EVQLVESGGGLVRPGGSLRLSCAASGFTFSSYAMSWVRQAPGKGLEWVSAISGSGGSTYYADSVKGRFTISRDNTKNSLYLQMTSLRADDTAFYYCVKDFGPGYGTGWFDYWGPGTLVTVSS VL: AVNWYQQLPGKAPKLLIYAAGRCKAQSGSGRCKQDSDCLAGCVCGPNGFCGANSGVSDRFSAAKSGTSASLAINGLRSEDEADYYCAAWDDSLNGYVFGTGTKLTVLG	119000
